The test system of this test is rabbit small clot embolic stroke model (RSCEM). Description: Rabbit small clot embolic stroke model (RSCEM), quantal dose-response analysis of behavior. Particulars: for group P50: Mean±SEM. The format is in vivo, Male New Zealand white rabbits. The text has this:
Methods: This model uses rabbits and is known as RSCEM. Male New Zealand white rabbits were anesthetized using isoflurane (5% induction, 2% maintenance by facemask), the bifurcation of the right carotid artery was exposed and the external carotid was ligated just distal to the bifurcation, where a catheter was inserted into the common carotid and secured with ligatures. The incision was closed around the catheter with the distal ends left accessible outside the neck; the catheter was filled with heparinized saline and plugged with an injection cap. Rabbits were allowed to recover from anesthesia for a minimum of 2 h until they behaved normally. After that time, microdots were prepared from blood drawn from a donor rabbit and allowed to clot at 37° C., as described in detail previously. Microclots were re-suspended in PBS, then washed and allowed to settle, followed by aspiration of the supernatant and spiking of the microclots with tracer quantities of 15-μm radiolabeled microspheres. The specific activity of the particles was determined by removing an aliquot, after which appropriate volumes of PBS solution were added so that a predetermined weight of clot particles were rapidly injected through the catheter and both the syringe and catheter were flushed with 5 ml of normal saline.
Quantal Dose-Response Analysis: For behavioral analysis, a quantal dose-response data analysis technique was used as described previously. A wide range of lesion volumes is induced to generate both normal and abnormal animals with various behavioral deficits. […] Briefly, to evaluate the quantitative relationship between numbers of clots in the brain and neurological deficits (coma or death), logistic (S-shaped) curves are fitted by computer to the quantal dose-response data (see FIGS. 1 and 2).
These parameters are measures of the amount of microclots (in mg) that produce neurologic dysfunction in 50% of a group of animals (P50). The P50 values are then calculated as described previously and are presented as Mean±SEM. […] The data were analyzed using the t-test. […]

This note sets out measurements from patent publication US11147859B2, “Diffusion enhancing compounds and their use alone or with thrombolytics” (Diffusion Pharmaceuticals LLC, priority 2009, dated 2021).

B1: tPA: Tissue plasminogen activator, a protein thrombolytic agent (clot-busting drug); Genentech lots (protein, UniProt P00750 36-562, looked up)
Tissue-type plasminogen …: SYQVICRDEKTQMIYQQHQSWLRPVLRSNRVEYCWCNSGRAQCHSVPVKSCSEPRCFNGGTCQQALYFSDFVCQCPEGFAGKCCEIDTRATCYEDQGISYRGTWSTAESGAECTNWNSSALAQKPYSGRRPDAIRLGLGNHNYCRNPDRDSKPWCYVFKAGKYSSEFCSTPACSEGNSDCYFGNGSAYRGTHSLTESGASCLPWNSMILIGKVYTAQNPSAQALGLGKHNYCRNPDGDAKPWCHVLKNRRLTWEYCDVPSCSTCGLRQYSQPQFRIKGGLFADIASHPWQAAIFAKHRRSPGERFLCGGILISSCWILSAAHCFQERFPPHHLTVILGRTYRVVPGEEEQKFEVEKYIVHKEFDDDTYDNDIALLQLKSDSSRCAQESSVVRTVCLPPADLQLPDWTECELSGYGKHEALSPFYSERLKEAHVRLYPSSRCTSQHLLNRTVTDNMLCAGDTRSGGPQANLHDACQGDSGGPLVCLNDGRMTLVGIISWGLGCGQKDVPGVYTKVTNYLDWIRDNMRP
On to B1, for which the “group P50” value was determined as 2.48 ± 0.17 mg (tPA 3.3 mg/kg IV given 1 hour following embolization) and 1.00 ± 0.56 mg (tPA 3.3 mg/kg IV given 3 hours following embolization). For the same molecule, the “effect on behavior / P50 value (in words)” value (tPA given 3 hours following embolization) was “ineffective”.
